Measurements from patent US10052415B2, “Tropoelastin for promoting endothelial cell adhesion or migration” (University of Utah Research Foundation, priority 2005, dated 2018).

Columns and labels:
Format in all cases: cell-based
[1] = test system: A2058 human melanoma cells; test: Boyden chamber migration assay, A2058 cells; details: FIG. 5
Description: Briefly, 16 h before the assay, 70% confluent 75 cm^2 flasks of human melanoma A2058 cell (ATCC, passage 3-12) or human aortic endothelial cells (HAEC; Cambrex, passage 4-7) were kept in basal media (dMEM+0.1% BSA, or EBM-2+1% FCS, respectively). Cells were lifted with 0.25% Trypsin/1 mM EDTA, diluted in 0.5% BSA (dMEM) and washed 3 times in basal media (dMEM+0.1% BSA) or (EBM-2+0.1% FCS,) and recovered in suspension at working density (2×10^6/ml for A2058 or 1.5×10^6 HAEC) for 1 h at 37° C. (5% CO2). For migration-inhibition assays, the cells were preincubated during the recovery period for 30 minutes in 25 μg/ml anti-integrin antibodies (Chemicon, Temecula, Calif.) or control IgG (Jackson ImmunoResearch, Inc.). All migration assays were performed in triplicate in a 48-well Boyden chamber apparatus (NeuroProbe, Cabin John, Md.). The recovered cells were added to the bottom chambers in a volume of 30 μl. The wells were overlayed with an 8 μm-pore polycarbonate membrane (NeuroProbe, Cabin John, Md.) and coated with 100 μg/ml Rat tail collagen (Trevigen, Gaithersburg, Md.) for A2058 cells or acetylated 1% gelatin from porcine skin (Sigma, St. Louis, Mo.) for HAEC. The apparatus was assembled and stored inverted at 37° C. (5 CO2) for a 2 h adhesion-period. […] Readings represent the number of cells migrating through the membrane (the sum of two high power X 20 fields/well, averaged for each sextuplicate-well set).

[2] = test system: human microvessel endothelial cells (HMVEC); test: Adhesion assay on coated stainless steel disks, HMVEC; details: FIG. 6
Excerpt: Given that an important aspect of the present invention is the prevention of restenosis and thrombosis, we conducted experiments to address whether endothelial cells would adhere to metal devices that had been coated with tropoelastin. Briefly, tropoelastin was covalently conjugated to a stainless steel disk approximately 6 mm in diameter. Tropoelastin was linked to the disk surface using an intermediate polysaccharide molecule. An exemplary process for covalently linking tropoelastin to the disk surface, and the process used here, is used in the manufacture of Genous Bio-Engineered R Stents. These disks provided ample surface area for microscopic imaging. Disks were also similarly coated with anti-CD34 antibody and with polysaccharide vehicle alone. Stents coated with anti-CD34 antibody using a similar process (Genous Bio-Engineered R Stents) are currently in human clinical trials and have promise to promote capture of circulating endothelial cells and endothelial progenitor cells and to accelerate endothelialization.
Human microvessel endothelial cells (HMVEC) were cultured with these coated disks, and adhesion of the cells to the coated disks was assayed. […]

[3] = test system: human embryonic kidney cells (HEK 293); test: Cell adhesion assay on coated culture plates, HEK 293 cells; details: culture plates coated with 10 ug/ml protein; 0.1% BSA control
Description: (§1) Cells were plated on culture plates coated with either 0.1% BSA (as a control), 10 ug/ml fibronectin (FN), or 10 ug/ml recombinant tropoelastin, and assayed for adherence to the coated substrate.
96-well plates were coated in duplicate overnight at 4° C. with 10 μg/ml collagen, fibronectin, tropoelastin, or 0.1% bovine serum albumin (BSA). Cells were harvested with 0.25% trypsin/1 mM EDTA, washed three times in adhesion buffer (0.5% BSA in basal medium), suspended at a working density of 5×10^5/ml in adhesion buffer, and then allowed to recover for 1 h at 37° C. (5% CO2). For integrin-blocking assays, 25 μg/ml anti-integrin antibodies (Chemicon, Temecula, Calif.) or control IgG (Jackson ImmunoResearch Laboratories, Inc, West Grove, Pa.) were added to the cell suspension during the recovery period. During the cell recovery, the coated 96-well plates were washed twice in dPBS and blocked for 1 h at 25° C. in 5.0% BSA (dPBS). The blocking solution was removed, and the wells were washed twice in dPBS. Recovered cells were added to the coated wells in a volume of 100 μl per well and placed at 37° C. for 30 minutes (5% CO2). […] Readings represent the number of adherent cells/well (average six high powered 100× fields, three taken from each of two separate wells).

[4] = test system: human aortic endothelial cells (HuAEC); test: Cell adhesion assay on coated culture plates, HuAEC
Description: as §1
96-well plates were coated in duplicate overnight at 4° C. with 10 μg/ml collagen, fibronectin, tropoelastin, or 0.1% bovine serum albumin (BSA). Cells were harvested with 0.25% trypsin/1 mM EDTA, washed three times in adhesion buffer (0.5% BSA in basal medium), suspended at a working density of 5×10^5/ml in adhesion buffer, and then allowed to recover for 1 h at 37° C. (5% CO2). For integrin-blocking assays, 25 μg/ml anti-integrin antibodies (Chemicon, Temecula, Calif.) or control IgG (Jackson ImmunoResearch Laboratories, Inc, West Grove, Pa.) were added to the cell suspension during the recovery period. During the cell recovery, the coated 96-well plates were washed twice in dPBS and blocked for 1 h at 25° C. in 5.0% BSA (dPBS). The blocking solution was removed, and the wells were washed twice in dPBS. Recovered cells were added to the coated wells in a volume of 100 μl per well and placed at 37° C. for 30 minutes (5% CO2). Following this incubation, the assay plate was inverted and assay wells were washed twice with 100 μl dPBS to remove non-specifically adhered cells. The wells were then fixed in Zamboni fixative, stained with Gill 1 hematoxylin, and overlayed with 80% glycerol. The assay was imaged at 100× magnification, capturing 3 random fields/well on a Zeiss Axiovert 200 inverted microscope equipped with a Zeiss Axiocam digital camera. Readings represent the number of adherent cells/well (average six high powered 100× fields, three taken from each of two separate wells).

B1: tropoelastin: recombinant human tropoelastin lacking native signal sequence, 10× His tag and Factor Xa site on N-terminus, 706 amino acid residues (SEQ ID NO: 4) (protein, listed as Homo sapiens)
chain: MGHHHHHHHHHHSSGGIEGRGGVPGAIPGGVPGGVFYPGAGLGALGGGALGPGGKPLKPVPGGLAGAGLGAGLGAFPAVTFPGALVPGGVADAAAAYKAAKAGAGLGGVPGVGGLGVSAGAVVPQPGAGVKPGKVPGVGLPGVYPGGVLPGARFPGVGVLPGVPTGAGVKPKAPGVGGAFAGIPGVGPFGGPQPGVPLGYPIKAPKLPGGYGLPYTTGKLPYGYGPGGVAGAAGKAGYPTGTGVGPQAAAAAAAKAAAKFGAGAAGVLPGVGGAGVPGVPGAIPGIGGIAGVGTPAAAAAAAAAAKAAKYGAAAGLVPGGPGFGPGVVGVPGAGVPGVGVPGAGIPVVPGAGIPGAAVPGVVSPEAAAKAAAKAAKYGARPGVGVGGIPTYGVGAGGFPGFGVGVGGIPGVAGVPGVGGVPGVGGVPGVGISPEAQAAAAAKAAKYGVGTPAAAAAKAAAKAAQFALLNLAGLVPGVGVAPGVGVAPGVGVAPGVGLAPGVGVAPGVGVAPGVGVAPGIGPGGVAAAAKSAAKVAAKAQLRAAAGLGAGIPGLGVGVGVPGLGVGAGVPGLGVGAGVPGFGAVPGALAAAKAAKYGAAVPGVLGGLGALGGVGIPGGVVGAGPAAAAAAAKAAAKAAQFGLVGAAGLGGLGVGGLGVPGVGGLGGIPPAAAAKAAKYGVAARPGFGLSPIFPGGACLGKACGRKRK
With B1 the “level of A2058 migration compared among tropoelastin and fragments” value [1] was “promoted migration of A2058 cell at comparable levels”, the “HMVEC adhesion to coated disks relative to anti-CD34 antibody coated disks” value [2] was “comparable to the adhesion of HMVECs to stainless steel disks coated with an anti-CD34 antibody” and the “adhesion of HMVEC to coated stainless steel disks” value ([2]; protein covalently conjugated to 6 mm disk) was “promoted adhesion of human endothelial cells to a metal device”. The “adhesion of HEK 293 cells to the coated substrate” value [3] was “do not adhere to tropoelastin”, the “HuAEC adhesion, number of cells bound/well, relative to other coats” value ([4]; FIG. 2, coated wells) was “comparable to that observed with fibronectin or collagen” and the “adhesion of HuAEC to the coated substrate” value ([4]; culture plates coated with 10 ug/ml protein, 0.1% BSA control) was “adhered to tropoelastin”.
